Measured values taken from patent US20140050727A1 (MOCHIDA PHARMACEUTICAL, published 2014).

Columns and labels:
Experiment in all cases: competitive EIA on immobilized 356(CHO) with HRP-labeled F1024 antibody
[1] = biological target: T1, amino acid-substituted soluble human CD14 P294H (human, UniProt P08571 20-345)
T1 construct: mature; Expressed in COS-1, purified on a 3C10 column
T1 sequence (looked up): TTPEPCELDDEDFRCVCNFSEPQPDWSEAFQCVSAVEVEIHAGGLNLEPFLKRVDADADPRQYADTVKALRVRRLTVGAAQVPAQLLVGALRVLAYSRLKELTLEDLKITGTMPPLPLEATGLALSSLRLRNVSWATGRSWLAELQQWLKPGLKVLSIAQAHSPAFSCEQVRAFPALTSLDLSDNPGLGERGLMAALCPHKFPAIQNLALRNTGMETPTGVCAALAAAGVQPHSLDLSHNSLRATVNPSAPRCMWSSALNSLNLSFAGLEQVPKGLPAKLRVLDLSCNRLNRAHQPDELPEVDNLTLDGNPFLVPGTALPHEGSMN
Description: (§1) A competitive experiment was conducted by the following procedure to confirm the reactivity of each soluble human amino acid-substituted CD14 with the F1024 antibody. […] After allowing to stand overnight at 4° C. and washing 3 times with the PBS containing 0.05% Tween 20, 200 μL/well of PBS⁻ containing 2% StabilGuard (SurModics, Inc.) was added to the well, and the solution was incubated at 37° C. for 30 minutes and stored at 4° C. In the meanwhile, amino acid-substituted soluble human CD14 that had been purified in Example 6-3) was diluted to 2 to 0.02 μg/mL with PBS⁻ containing 0.1% BSA. HRP-labeled F1024 antibody was diluted to 2 μg/mL with PBS⁻ containing 0.1% BSA, and the diluted HRP-labeled F1024 antibody was mixed with an equal amount of the human amino acid-substituted CD14 (25 μL+25 μL). Next, the solution was discarded from the wells of the plate having the soluble CD14 immobilized, and 50 μL/well of a mixed solution of amino acid-substituted CD14 and HRP-labeled F1024 was added. After the incubation at 37° C. for 2 hours, the plate was washed 5 times with PBS⁻ containing 0.05% Tween 20, and 50 μL/well of TMB solution (BioFX) was added to the well as the chromogenic substrate. The reaction was allowed to proceed at room temperature for 5 minutes, the reaction was terminated by adding 50 μL/well of 1M hydrochloric acid solution. Absorbance at 450 nm was measured with a plate spectrophotometer.

[2] = biological target: T2, amino acid-substituted soluble human CD14 P294/296A (human, UniProt P08571 20-345)
T2 construct: mature; Expressed in COS-1, purified on a 3C10 column
T2 sequence (looked up): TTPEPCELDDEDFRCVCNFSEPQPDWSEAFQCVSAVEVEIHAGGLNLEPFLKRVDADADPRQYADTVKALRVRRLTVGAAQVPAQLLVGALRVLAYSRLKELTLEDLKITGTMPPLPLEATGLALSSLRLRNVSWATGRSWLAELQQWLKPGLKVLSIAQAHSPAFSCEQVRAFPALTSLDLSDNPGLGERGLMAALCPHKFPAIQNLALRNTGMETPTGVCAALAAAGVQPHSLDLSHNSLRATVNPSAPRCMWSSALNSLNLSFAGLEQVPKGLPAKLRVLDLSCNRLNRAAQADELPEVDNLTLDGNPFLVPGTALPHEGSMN
Description: as §1

[3] = biological target: T3, amino acid-substituted soluble human CD14 Q295A (human, UniProt P08571 20-345)
T3 construct: mature; Expressed in COS-1, purified on a 3C10 column
T3 sequence (looked up): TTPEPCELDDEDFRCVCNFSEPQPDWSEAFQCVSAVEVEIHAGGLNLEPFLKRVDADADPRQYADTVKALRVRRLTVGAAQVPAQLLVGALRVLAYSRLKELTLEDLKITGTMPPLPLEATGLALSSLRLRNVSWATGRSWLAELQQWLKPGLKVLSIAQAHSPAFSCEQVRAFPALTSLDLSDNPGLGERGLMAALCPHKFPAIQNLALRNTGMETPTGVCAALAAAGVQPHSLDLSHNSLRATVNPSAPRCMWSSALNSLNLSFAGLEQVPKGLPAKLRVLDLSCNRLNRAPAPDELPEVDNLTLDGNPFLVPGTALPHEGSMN
Description: as §1

Measured: binding result

B1: F1024 antibody (antibody, V domains shown)
VH: QIQLVQSGPELKKPGESVKISCKASGYTFTDYAMNWVKQAPGNGLKWMGWINTQTGKPTYADDFKQRFVFSLETSASTAYLQINNLNIEDTATYFCTRSTFYYSSYIYGWYFDFWGPGTSVTVSS
VL: DIVMTQSPTSISISVGERVTMNCKASQNVGSNVDWYQQKTGQSPKLLIYKASNRYTGVPDRFTGSGSGTDFTFTISNMQAVDLAVYYCMQSNTNPPWTFGGGTKLELKRT
notes: also called antibody F1024; F1024-1-3 rat antibody
no binding (tested: 2 to 0.02 µg/mL): all assays above
